This experiment deals with T1, Scd5 DxxDxxxD motif peptide (Saccharomyces cerevisiae, UniProt P34758).
T1 chain: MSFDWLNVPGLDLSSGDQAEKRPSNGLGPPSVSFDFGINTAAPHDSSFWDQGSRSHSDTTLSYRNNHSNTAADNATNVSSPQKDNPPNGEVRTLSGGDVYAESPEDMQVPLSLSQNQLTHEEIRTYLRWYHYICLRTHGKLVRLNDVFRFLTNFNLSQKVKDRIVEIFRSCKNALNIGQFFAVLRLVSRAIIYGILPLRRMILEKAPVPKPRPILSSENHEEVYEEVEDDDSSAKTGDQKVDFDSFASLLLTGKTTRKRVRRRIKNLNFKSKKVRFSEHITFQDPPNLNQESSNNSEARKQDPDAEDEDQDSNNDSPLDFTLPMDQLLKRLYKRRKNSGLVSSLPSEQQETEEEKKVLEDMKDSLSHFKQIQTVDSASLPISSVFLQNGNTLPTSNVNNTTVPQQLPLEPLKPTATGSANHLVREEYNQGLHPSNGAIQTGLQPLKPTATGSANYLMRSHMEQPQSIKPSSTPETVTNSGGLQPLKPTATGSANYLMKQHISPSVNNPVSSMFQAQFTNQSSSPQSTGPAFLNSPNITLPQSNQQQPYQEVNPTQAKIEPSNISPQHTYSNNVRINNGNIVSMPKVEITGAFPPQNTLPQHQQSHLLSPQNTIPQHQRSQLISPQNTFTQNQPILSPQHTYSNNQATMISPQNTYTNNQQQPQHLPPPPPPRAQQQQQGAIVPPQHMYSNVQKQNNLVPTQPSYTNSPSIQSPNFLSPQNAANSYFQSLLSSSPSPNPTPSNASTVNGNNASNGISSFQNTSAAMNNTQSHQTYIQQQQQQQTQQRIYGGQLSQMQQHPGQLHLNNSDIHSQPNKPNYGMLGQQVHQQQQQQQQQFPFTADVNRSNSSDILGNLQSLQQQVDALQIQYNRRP
The experiment is described as follows: fluorescence polarization. For orientation: Polarisation of emitted light reports the rotation of a fluorescent probe.

As usually defined, the Kd is the free concentration of one partner at which half of the binding sites on the other are occupied at equilibrium, for simple one-to-one binding. Low readings indicate tighter binding, high ones weaker binding.

B1: PP1 (Glc7) (protein)
chain: MDSQPVDVDNIIDRLLEVRGSKPGQQVDLEENEIRYLCSKARSIFIKQPILLELEAPIKICGDIHGQYYDLLRLFEYGGFPPESNYLFLGDYVDRGKQSLETICLLLAYKIKYPENFFILRGNHECASINRIYGFYDECKRRYNIKLWKTFTDCFNCLPIAAIIDEKIFCMHGGLSPDLNSMEQIRRVMRPTDIPDVGLLCDLLWSDPDKDIVGWSENDRGVSFTFGPDVVNRFLQKQDMELICRAHQVVEDGYEFFSKRQLVTLFSAPNYCGEFDNAGAMMSVDESLLCSFQILKPAQKSLPRQAGGRKKK
modifications: fluorescently labelled peptide
B1 gave a Kd of 22 µM.

For the origin of these results see article PMC1283537 (2005).
